Residue numbers refer to the chain shown, from its start. Names may count otherwise.
B1: L208A: A2aR point mutant (protein, UniProt P29274 1-412, looked up, variant L208A)
Adenosine receptor A2a: MPIMGSSVYITVELAIAVLAILGNVLVCWAVWLNSNLQNVTNYFVVSLAAADIAVGVLAIPFAITISTGFCAACHGCLFIACFVLVLTQSSIFSLLAIAIDRYIAIRIPLRYNGLVTGTRAKGIIAICWVLSFAIGLTPMLGWNNCGQPKEGKNHSQGCGEGQVACLFEDVVPMNYMVYFNFFACVLVPLLLMLGVYLRIFLAARRQAKQMESQPLPGERARSTLQKEVHAAKSLAIIVGLFALCWLPLHIINCFTFFCPDCSHAPLWLMYLAIVLSHTNSVVNPFIYAYRIREFRQTFRKIIRSHVLRQQEPFKAAGTSARVLAAHGSDGEQVSLRLNGHPPGVWANGSAPHPERRPNGYALGLVSGGSAQESQGNTGLPDVELLSHELKGVCPEPPGLDDPLAQDGAGVS
B2: Q210A: A2aR point mutant (protein, UniProt P29274 1-412, looked up, variant Q210A)
Adenosine receptor A2a: B1 Adenosine receptor A2a with A208L, Q210A
B3: S213A: A2aR point mutant (protein, UniProt P29274 1-412, looked up, variant S213A)
Adenosine receptor A2a: B1 Adenosine receptor A2a with A208L, S213A
B4: E219A: A2aR point mutant (protein, UniProt P29274 1-412, looked up, variant E219A)
Adenosine receptor A2a: B1 Adenosine receptor A2a with A208L, E219A
B5: R220A: A2aR point mutant (protein, UniProt P29274 1-412, looked up, variant R220A)
Adenosine receptor A2a: B1 Adenosine receptor A2a with A208L, R220A
B6: S223A: A2aR point mutant (protein, UniProt P29274 1-412, looked up, variant S223A)
Adenosine receptor A2a: B1 Adenosine receptor A2a with A208L, S223A
B7: T224A: A2aR point mutant (protein, UniProt P29274 1-412, looked up, variant T224A)
Adenosine receptor A2a: B1 Adenosine receptor A2a with A208L, T224A
B8: Q226A: A2aR point mutant (protein, UniProt P29274 1-412, looked up, variant Q226A)
Adenosine receptor A2a: B1 Adenosine receptor A2a with A208L, Q226A
B9: K227A: A2aR point mutant (protein, UniProt P29274 1-412, looked up, variant K227A)
Adenosine receptor A2a: B1 Adenosine receptor A2a with A208L, K227A
B10: H230A: A2aR point mutant (protein, UniProt P29274 1-412, looked up, variant H230A)
Adenosine receptor A2a: B1 Adenosine receptor A2a with A208L, H230A
B11: L241A: A2aR point mutant (protein, UniProt P29274 1-412, looked up, variant L241A)
Adenosine receptor A2a: B1 Adenosine receptor A2a with A208L, L241A
B12: P260A: A2aR point mutant (protein, UniProt P29274 1-412, looked up, variant P260A)
Adenosine receptor A2a: B1 Adenosine receptor A2a with A208L, P260A
B13: S263A: A2aR point mutant (protein, UniProt P29274 1-412, looked up, variant S263A)
Adenosine receptor A2a: B1 Adenosine receptor A2a with A208L, S263A
B14: L267A: A2aR point mutant (protein, UniProt P29274 1-412, looked up, variant L267A)
Adenosine receptor A2a: B1 Adenosine receptor A2a with A208L, L267A
B15: L272A: A2aR point mutant (protein, UniProt P29274 1-412, looked up, variant L272A)
Adenosine receptor A2a: B1 Adenosine receptor A2a with A208L, L272A
B16: N284A: A2aR point mutant (protein, UniProt P29274 1-412, looked up, variant N284A)
Adenosine receptor A2a: B1 Adenosine receptor A2a with A208L, N284A
B17: Q311A: A2aR point mutant (protein, UniProt P29274 1-412, looked up, variant Q311A)
Adenosine receptor A2a: B1 Adenosine receptor A2a with A208L, Q311A
B18: P313A: A2aR point mutant (protein, UniProt P29274 1-412, looked up, variant P313A)
Adenosine receptor A2a: B1 Adenosine receptor A2a with A208L, P313A
B19: Rant17: A2aR mutant A54L+K122A+L235A (protein, UniProt P29274 1-412, looked up, variant A54L K122A L235A)
Adenosine receptor A2a: B1 Adenosine receptor A2a with A54L, K122A, A208L, L235A
B20: K315A: A2aR point mutant (protein, UniProt P29274 1-412, looked up, variant K315A)
Adenosine receptor A2a: B1 Adenosine receptor A2a with A208L, K315A
B21: A54L: A2aR point mutant (protein, UniProt P29274 1-412, looked up, variant A54L)
Adenosine receptor A2a: B1 Adenosine receptor A2a with A54L, A208L
B22: V57A: A2aR point mutant (protein, UniProt P29274 1-412, looked up, variant V57A)
Adenosine receptor A2a: B1 Adenosine receptor A2a with V57A, A208L
B23: H75A: A2aR point mutant (protein, UniProt P29274 1-412, looked up, variant H75A)
Adenosine receptor A2a: B1 Adenosine receptor A2a with H75A, A208L
B24: T88A: A2aR point mutant (protein, UniProt P29274 1-412, looked up, variant T88A)
Adenosine receptor A2a: B1 Adenosine receptor A2a with T88A, A208L
B25: G114 A: A2aR point mutant (protein, UniProt P29274 1-412, looked up, variant G114A)
Adenosine receptor A2a: B1 Adenosine receptor A2a with G114A, A208L
B26: T119A: A2aR point mutant (protein, UniProt P29274 1-412, looked up, variant T119A)
Adenosine receptor A2a: B1 Adenosine receptor A2a with T119A, A208L
B27: K122A: A2aR point mutant (protein, UniProt P29274 1-412, looked up, variant K122A)
Adenosine receptor A2a: B1 Adenosine receptor A2a with K122A, A208L
B28: G123A: A2aR point mutant (protein, UniProt P29274 1-412, looked up, variant G123A)
Adenosine receptor A2a: B1 Adenosine receptor A2a with G123A, A208L
B29: P149A: A2aR point mutant (protein, UniProt P29274 1-412, looked up, variant P149A)
Adenosine receptor A2a: B1 Adenosine receptor A2a with P149A, A208L
B30: Rant19: A2aR mutant A54L, T88A, V239A+A204L (protein, UniProt P29274 1-412, looked up, variant A54L T88A V239A A204L)
Adenosine receptor A2a: B1 Adenosine receptor A2a with A54L, T88A, A204L, A208L, V239A
B31: E151A: A2aR point mutant (protein, UniProt P29274 1-412, looked up, variant E151A)
Adenosine receptor A2a: B1 Adenosine receptor A2a with E151A, A208L
B32: G152A: A2aR point mutant (protein, UniProt P29274 1-412, looked up, variant G152A)
Adenosine receptor A2a: B1 Adenosine receptor A2a with G152A, A208L
B33: A204L: A2aR point mutant (protein, UniProt P29274 1-412, looked up, variant A204L)
Adenosine receptor A2a: B1 Adenosine receptor A2a with A204L, A208L
B34: A231L: A2aR point mutant (protein, UniProt P29274 1-412, looked up, variant A231L)
Adenosine receptor A2a: B1 Adenosine receptor A2a with A208L, A231L
B35: L235A: A2aR point mutant (protein, UniProt P29274 1-412, looked up, variant L235A)
Adenosine receptor A2a: B1 Adenosine receptor A2a with A208L, L235A
B36: V239A: A2aR point mutant (protein, UniProt P29274 1-412, looked up, variant V239A)
Adenosine receptor A2a: B1 Adenosine receptor A2a with A208L, V239A
B37: G118A: A2aR point mutant (protein, UniProt P29274 1-412, looked up, variant G118A)
Adenosine receptor A2a: B1 Adenosine receptor A2a with G118A, A208L
B38: L167A: A2aR point mutant (protein, UniProt P29274 1-412, looked up, variant L167A)
Adenosine receptor A2a: B1 Adenosine receptor A2a with L167A, A208L

Assay: Thermostability of A2aR and mutants (ligand binding after or during heating)
Assay type: physicochemical
Details: for thermostability measured with 3H-NECA (agonist) / thermostability assayed with 3H-ZM241385 (antagonist): Ligand(−) format, binding after the heating step; for Tm: ZM241385 bound
Source text: FIG. 12 Flow chart showing the two different assay formats of ligand (+) and ligand (−) used to determine receptor thermostability.
• 1. 315 site-directed mutants made between residues 2-316 of A2aR. • 2. All of these mutants have been assayed for thermostability using an assay measuring agonist and antagonist binding after the heating step (Ligand(−) format as described in FIG. 12). • a. […] Mutations have been combined to generate mutants in a putative antagonist conformation. Wildtype A2aR has a Tm of 31° C. with ZM241385 bound. • a. Rant17 A54L+K122A+L235A Tm 48° C. (ZM241385 bound) • b. Rant19 A54L, T88A, V239A+A204L Tm 47° C. (ZM241385 bound) • c. Rant21 A54L, T88A, V239A+K122A Tm 49° C. (ZM241385 bound) • 4. Mutations from the agonist screen have been combined, but have led to only a very low level of improvement in Tm of +2° C.

Molecule | thermostability measured with 3H-NECA (agonist) | Tm [°C] | thermostability assayed with 3H-ZM241385 (antagonist)
B1 | improved thermostability | – | –
B2 | improved thermostability | – | –
B3 | improved thermostability | – | –
B4 | improved thermostability | – | –
B5 | improved thermostability | – | –
B6 | improved thermostability | – | –
B7 | improved thermostability | – | –
B8 | improved thermostability | – | –
B9 | improved thermostability | – | –
B10 | improved thermostability | – | –
B11 | improved thermostability | – | –
B12 | improved thermostability | – | –
B13 | improved thermostability | – | –
B14 | improved thermostability | – | –
B15 | improved thermostability | – | –
B16 | improved thermostability | – | –
B17 | improved thermostability | – | –
B18 | improved thermostability | – | –
B19 | – | 48 | –

Molecule | thermostability measured with 3H-NECA (agonist) | Tm [°C] | thermostability assayed with 3H-ZM241385 (antagonist)
B20 | improved thermostability | – | –
B21 | – | – | improved thermostability
B22 | – | – | improved thermostability
B23 | – | – | improved thermostability
B24 | – | – | improved thermostability
B25 | improved thermostability | – | improved thermostability
B26 | – | – | improved thermostability
B27 | – | – | improved thermostability
B28 | – | – | improved thermostability
B29 | – | – | improved thermostability
B30 | – | 47 | –
B31 | – | – | improved thermostability
B32 | – | – | improved thermostability
B33 | – | – | improved thermostability
B34 | – | – | improved thermostability
B35 | – | – | improved thermostability
B36 | – | – | improved thermostability
B37 | improved thermostability | – | improved thermostability
B38 | improved thermostability | – | –

— patent publication US8785135B2, “Mutant G-protein coupled receptors and methods for selecting them” (Heptares Therapeutics Limited, priority 2007, dated 2014)
